Usually EC50 stands for the concentration giving half of the maximal effect. A lower EC50 goes with a more potent agent. As usually defined, the EC50 (read off the curve) is the concentration that produces a half-maximal response. A low value points to higher potency in that assay.

The record followed here is US20250195677A1 (CEPHALON, published 2025).

For test [1], the target named is T1, human PD-1 (amino acids 1-185) stably expressed on Jurkat cells (human, UniProt Q15116 21-185).
T1 construct: extracellular domain and a portion of the transmembrane domain, on cells; also called hPD-1; Jurkat+hPD-1 cell line
The test can be described thus: flow cytometry, Jurkat+hPD-1, multiple experiments. The procedure:
(§1) Antibodies or antibody-attenuated hIL-2 immunoconjugates (fusion proteins) were serially diluted six-fold in FACS buffer for an 8-point curve and added to human PD-1 expressing Jurkat cells for 1 hour on ice in 100 μL volume. Cells were washed and re-suspended in FACS buffer containing 1:40 dilution of Allophycocyanin conjugated anti-human IgG Fc monoclonal antibody. Cells were washed once more, re-suspended in FACS buffer containing 1:1000 dilution of Sytox Green (Thermo Fisher) and flow cytometric analysis was conducted on the BD FACS Canto II, BD Celesta or BD Fortessa (BD Biosciences) flow cytometers. The geometric mean fluorescent intensity (gMFI) was calculated using FlowJo software version 10. Half maximal effective concentration (EC₅₀) values were calculated from the gMFI of the Allophycocyanin signal across the titrated concentrations using GraphPad Prism 7 software.
(§2) The anti-PD-1 variable region sequences were expressed as human IgG4 kappa antibodies and were evaluated for the ability to bind to PD-1 expressing cells using flow cytometry as described in General Methods Protocol A. Antibodies to be tested were first screened for binding to human PD-1 using a Jurkat cell line expressing recombinant human PD-1 (Jurkat+hPD-1 cell line).
A general note: A flow cytometer gives signals particle by particle.

In test [2] the target is human PD-1 on Jurkat Effector cells (Promega PD-1/PD-L1 blockade bioassay) (human, UniProt Q15116 25-288). The experiment in a line: cell-based or functional assay.
Test [3] has as its target T1, human PD-1 (amino acids 1-185) stably …. The test can be described thus: flow cytometry, Jurkat+hPD-1. As for the experimental part:
as §1, §2

For test [4] the target is unchanged. The experiment in a line: flow cytometry, Jurkat+hPD-1 cells, APC anti-human IgG Fc, gMFI; no competitor.
Method: Briefly, Jurkat cells stably expressing hPD-1 (as described in Protocol A above) were washed and re-suspended in FACS buffer containing 1:50 dilution of human FcR Blocking reagent. Cells were incubated at 4° C. for 10 minutes and washed. […] Cells were washed and incubated with test antibodies or antibody-attenuated hIL-2 fusion proteins serially diluted six-fold for an 8-point curve in 100 μL volume for one hour at 4° C. To detect bound test anti-hPD-1 antibodies or anti-hPD-1-attenuated hIL-2 fusion proteins, cells were washed again and incubated with 1:40 dilution of Allophycocyanin-conjugated anti-human IgG Fc monoclonal antibody for 45 minutes on ice. Cells were washed and re-suspended in FACS buffer containing 1:1000 dilution of Sytox Green (Thermo Fisher). […] Flow cytometry was carried out on the BD Canto II, BD Celesta, or BD Fortessa (BD Biosciences) flow cytometers and gMFI was calculated using FlowJo software version 10. EC₅₀ values were calculated from the gMFI of the Allophycocyanin signal across the titrated concentrations using GraphPad Prism 7 software.

T1 sequence (Q15116 21-185 limits assumed, form in doubt): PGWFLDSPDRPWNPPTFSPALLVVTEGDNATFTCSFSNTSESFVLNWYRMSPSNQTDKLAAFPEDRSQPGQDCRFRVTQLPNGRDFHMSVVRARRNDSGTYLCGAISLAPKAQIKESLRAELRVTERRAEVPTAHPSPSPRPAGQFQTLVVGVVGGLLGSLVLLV
human PD-1 on Jurkat Effector cells (Promega PD-1/PD-L1 blockade bioassay), sequence (Q15116 25-288): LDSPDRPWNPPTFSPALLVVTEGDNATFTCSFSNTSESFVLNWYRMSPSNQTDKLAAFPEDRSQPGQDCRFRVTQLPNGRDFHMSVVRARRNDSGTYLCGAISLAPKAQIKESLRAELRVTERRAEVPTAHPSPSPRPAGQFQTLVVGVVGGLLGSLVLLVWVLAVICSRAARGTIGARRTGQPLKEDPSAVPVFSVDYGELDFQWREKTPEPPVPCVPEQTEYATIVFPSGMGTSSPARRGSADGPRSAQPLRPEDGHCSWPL

B1: 2A3.H7-hIgG4 (antibody, V domains shown)
VH: EVQLLESGGGLVQPGGSLRLSCAASGFTFKDYCMTWVRQAPGKGLEWVSAIVYSGGSTYYADSVKGRFTISRDNSKNTLYLQMNNLRAEDTAVYYCAKYTRASYFYDAMDVWGQGTTVTVSS
VL: EIVLTQSPGTLSLSPGERATLSCRASQSIGRSFLAWYQQKPGQAPRLLIYDASTRAADIPARFSGSGSGTDFTLTISSLEPEDFAVYYCQQYYDWPPLSFGGGTKVEIKR
For the molecule B1, the EC50 in test [1] was in the range of 0.1 to 0.3 nM. Further, the “luminescence, hPD-1/hPD-L1 blockade bioassay” value in test [2] is around 3000 RLU.

B2: 1H9-hIgG4 (antibody, V domains shown)
VH: EVQLLESGGGLVQPGGSLRLSCVGSGFNLKDYCMTWVRQAPGKGLEWVSAIVYSGGSTYYADSVKGRFTISRDNSKNTLYLQMNSLRAEDTAVYYCAKYTRGSYFYDAMDVWGQGTTVTVSS
VL: EIVLTQSPGTLSLSPGERATLSCRASQSIGRSFLAWYQQKPGQAPRLLIYDASTRAADIPDRFSGSGSGTDFTLTINRLEPEDFAVYYCQQYYDWPPLTFGGGTKVEIKR
As for B2, the EC50 in test [1] was in the range of 0.1 to 0.3 nM. In addition, the “luminescence, hPD-1/hPD-L1 blockade bioassay” value in test [2] is around 3000 RLU.

B3: 2H7-hIgG4 (antibody)
heavy: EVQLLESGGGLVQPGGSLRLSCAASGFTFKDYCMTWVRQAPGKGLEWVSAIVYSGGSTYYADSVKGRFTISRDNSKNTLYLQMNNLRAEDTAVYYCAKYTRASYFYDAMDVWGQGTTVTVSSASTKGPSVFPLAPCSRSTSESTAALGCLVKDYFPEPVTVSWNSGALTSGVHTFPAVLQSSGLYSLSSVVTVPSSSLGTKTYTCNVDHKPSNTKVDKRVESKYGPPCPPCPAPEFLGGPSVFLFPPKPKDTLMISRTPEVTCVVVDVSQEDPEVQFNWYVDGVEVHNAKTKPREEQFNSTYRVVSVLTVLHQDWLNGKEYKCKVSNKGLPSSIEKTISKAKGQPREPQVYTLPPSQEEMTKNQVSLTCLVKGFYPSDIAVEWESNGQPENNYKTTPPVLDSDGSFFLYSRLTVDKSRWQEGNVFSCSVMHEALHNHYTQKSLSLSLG
light: EIVLTQSPGTLSLSPGERATLSCRASQSIGKSFLAWYQQKPGQAPRLLIYDASTRAADIPARFSGSGSGTDFTLTISSLEPEDFAVYYCQQYYDWPPLSFGGGTKVEIKRTVAAPSVFIFPPSDEQLKSGTASVVCLLNNFYPREAKVQWKVDNALQSGNSQESVTEQDSKDSTYSLSSTLTLSKADYEKHKVYACEVTHQGLSSPVTKSFNRGEC
notes: human IgG4 kappa
In the case of B3, in test [1], the EC50 lay within 0.1 to 0.3 nM.

B4: 1D5-hIgG4 (antibody, V domains shown)
VH: EVQLLESGGGLVQPGGSLRLSCVGSGFNFKDYCMTWVRQAPGKGLEWVSAIVYSGGSTYYADSVKGRFTISRDNSKNTLYLQMNSLRAEDTAVYYCAKYTRGSYFYDAMDVWGQGTTVTVSS
VL: EIVLTQSPGTLSLSPGERATLSCRASQSIGRSFLAWYQQKPGQAPRLLIYDASTRATDIPDRFSGSGSGTEFTLTISSLQSEDFAVYYCQQYYDWPPLTFGGGTKVEIKR
In test [1], B4 came in with an EC50 of 0.1 to 0.3 nM. The “luminescence, hPD-1/hPD-L1 blockade bioassay” value in test [2] was around 3000 RLU.

B5: OMC.1.B6-hIgG4 (antibody, V domains shown)
VH: EVQLLESGGGLVQPGGSLRLSCAASGFTFSSNYMSWVRQAPGKGLEWVSAISSSGGTIFYADSVKGRFTISRDNSKNTLYLQMNSLRAEDTAVYYCAKHKWNAVYYDGMDVWGQGTTVTVSS
VL: QSVLTQPPSASGTPGQRVTISCSGSNSNIGRNLVNWYQQLPGTAPKLLIYTIDQRPSGVPDRFSGSKSGTSASLVISGLQSEDEADYYCAAWDGSLNAWVFGGGTKLTVLG
In the case of B5, the 50% effective concentration (EC50) in test [3] is 3 to 16 nM. Besides, the “luminescence, hPD-1/hPD-L1 blockade bioassay” value in test [2] is around 3000 RLU.

B6: OMC.1.D6-hIgG4 (antibody, V domains shown)
VH: EVQLLESGGGLVQPGGSLRLSCAASGFTFSDYYMSWVRQAPGKGLEWVSAISSSGGTIFYADSVKGRFIISRDNSKNTLYLQMNSLRAEDTAVYYCAKHKWNDVYYDAMDVWGQGTTVTVSS
VL: QSVLTQPPSASGTPGQRVTISCSGSNSNIGRNLVNWYQQLPGTAPKLLIYTVDQRPSGVPDRFSGSKSGTSASLAISGLASEDEADYYCAAWDSSLNSWVFGGGTKLTVLG
As to B6, the concentration giving a half-maximal response (EC50) in test [3] lay within 3 to 16 nM. For the same molecule, the “luminescence, hPD-1/hPD-L1 blockade bioassay” value in test [2] was around 3000 RLU.

B7: A2-hIgG4 (antibody, V domains shown)
VH: DVQLVESGGGLVQPGGSLRLSCAASGFTFDISAMSWVRQAPGKGLEWVSTISGSAYSTYYADSVKGRFTISRDNSKSTLYLQMNSLRAEDTAVYYCAREIFSDYWGLGTLVTVSS
VL: QSVLTQPPSASGTPGQRVTISCSGSTSNIGRESVYWYQQLPGTAPKLLIYSNVQRPSGAPNRFSGSKSGTSASLAISGLQSEDEADYYCGTWDDSLNGWVFGGGTKLTVLG
B7: the concentration for a half-maximal effect (EC50) in test [3] was 3 to 16 nM.

B8: OMC.2.C6-hIgG4 (antibody, V domains shown)
VH: EVQLLESGGGLVQPGGSLRLSCTASGFTFSSYEMQWVRQAPGKGLEWVLGITSSSSHIFYADSVKGRFTVSRDNSKNTLYLQMNSLRAEDTAVYYCTKDLNSYYGLDVWGQGTTVTVSS
VL: QSVMTQPPSASGTPGQRVTISCSGSTSNLGNNYVSWYQHLPGTAPKLLIYGNDQRPSGVPDRFSGSKSGTSASLAISGLQSDDEADYYCSSWDASLNVWVFGGGTKLTVLG
Molecule B8 displayed a half-maximal effective concentration (EC50) in test [3] of 3 to 16 nM. The “luminescence, hPD-1/hPD-L1 blockade bioassay” value in test [2] is around 3000 RLU.

B9: C51E6-5-hIgG4 (antibody, V domains shown)
VH: QVQLVQSGSELKKPGASVKVSCKASGYSLYGTSMHWVRQAPGQGLEWMGYISPFTGRATYAQGFTGRFVFSLDTSVSTAYLQISSLKAEDTAVYYCARDYDYRYYYAMDYWGQGTTVTVSS
VL: EIVLTQSPDFQSVTPKEKVTITCTASESVPPQFLHWYQQKPDQSPKLLIYASRERASGVPSRFSGSGSGTDFTLTINSLEAEDAATYYCHQFHRSPLTFGGGTKLEIKR
Take B9: the 50% effective concentration (EC50 (read off the curve)) in test [4] is around 3 nM.
